Entries after “also recorded” stand apart in the source; their conditions may differ.
B1: 6F12 #33 (antibody, V domains shown)
VH: AVTLDESGGGLQTPGGALSLVCKASGFTFSDHAIFWVRQAPDKGLEFVAAISSGTGSWTAYATVVKGRATISRDNGQSTVRLQLNNLRAADTATYYCAKGAGSACCYAGSIDAWGHGTEVIVSS
VL: ALTQPSSVSANPGETVKITCSGGSSSSYYGWYQQKSPGSAPVTLIYYNDKRPSDIPSRFSGSKSGSTATLTITGVQVEDEAVYYCGTGDGSFAIFGAGTTLTVL
B2: 2E5 #22 (antibody, V domains shown)
VH: AVTLDESGGGLQTPGGALSLVCKASGFTFSTKGMGWVRQTPGKGLEWVAGISSMRRYTYYAPAVKGRATISRDNGQSTVRLQLSSLRAEDSGTYYCARDATYCSWTTSTCGWSGGTIDAWGHGTEVIVSS
VL: ALTQPSSVSANLGGTVKITCSGGSGNYGWYQQKSPGSVPVTVIYSNDKRPSDIPSRFSGSGSGSTATLTITGVQVEDEAVYFCGSRDSSYVGLFGAGTTLTVL

Columns and labels:
[1] = target: T1, SLC2A2 pseudotyped VLPs (Homo sapiens, UniProt P11168); assay: ELISA-based VLP binding assay, SLC2A2; conditions: compared to MOCK VLPs, FIG. 3
T1 sequence (P11168 1-524): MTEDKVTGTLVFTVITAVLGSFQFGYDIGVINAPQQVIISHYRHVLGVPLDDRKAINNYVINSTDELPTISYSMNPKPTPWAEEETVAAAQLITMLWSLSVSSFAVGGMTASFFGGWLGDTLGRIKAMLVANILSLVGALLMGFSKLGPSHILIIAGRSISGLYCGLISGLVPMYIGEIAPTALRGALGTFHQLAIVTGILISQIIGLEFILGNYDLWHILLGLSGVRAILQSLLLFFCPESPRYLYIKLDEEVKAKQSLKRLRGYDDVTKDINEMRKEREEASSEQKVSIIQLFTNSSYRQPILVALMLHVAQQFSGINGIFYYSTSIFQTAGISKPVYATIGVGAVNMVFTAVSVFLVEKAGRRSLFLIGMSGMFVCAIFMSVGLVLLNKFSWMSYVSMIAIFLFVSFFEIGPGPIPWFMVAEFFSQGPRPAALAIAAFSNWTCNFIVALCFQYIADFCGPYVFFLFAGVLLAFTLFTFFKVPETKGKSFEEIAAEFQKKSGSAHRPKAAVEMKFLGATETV
Method: (§1) An ELISA-based VLP binding assay was carried out to compare the EC50 values of antibody clones (FIG. 1). Similarly, ELISA based VLP binding assay was performed to compare the binding of the antibodies to different glucose transporters (FIG. 3). MaxiSorp™ high-capacity binding ELISA plate (Thermo Fisher Scientific, US) were coated with 5 μg/mL SLC2A1, SLC2A2, SLC2A3, SLC2A4 pseudotyped VLPs or MOCK VLPs in PBS overnight. The plate was washed and blocked for 1 h with 0.05% Tween 20, 2% BSA in PBS. Serial dilutions of antibodies were incubated on a washed plate for 1 hour, followed by a 1-hour incubation with goat anti-human IgG horse radish peroxidase (HRP) conjugated (Invitrogen) antibody. TMB (3,3′,5,5′-Tetramethylbenzidine) Solution VII (Biopanda Diagnostics) was used as a substrate for HRP and 0.5 M H2SO4 was used as stop solution. After every step, the wells were washed with 0.05% Tween 20, 0.1% Proclin 300 PBS solution. Absorption at 450 nm was measured with Thermo Scientific™ Multiskan™ FC Microplate Photometer. Exemplary wise used antibodies 1G2 #9, 2A2 #12, 2E5 #22, 5G5 #30, 6F12 #33, 7C3 #39 all bound SLC2A1 VLPs with low nanomolar EC50 values (FIG. 1).

[2] = target: T2, SLC2A2 pseudotyped VLPs (UniProt P11168 1-524); assay: ELISA on VLPs coated at 5 ug/mL, compared with MOCK VLPs
T2 construct: also called SLC2A2 VLPs; GLUT2
T2 sequence: T1 sequence (P11168 1-524)

[3] = target: T3, HEK-293-ALL cells transfected with human SLC2A1 (Homo sapiens, UniProt P11166); assay: 2-Deoxyglucose uptake assay (Glucose Uptake-Glo); assay type: cell-based; conditions: 2-hour incubation, 0.35 nM to 6.89 μM, 1 mM 2DG for 20 min, FIG. 4
T3 construct: expressed in transfected cells; host or cells: HEK-293-ALL
T3 sequence (P11166 1-492): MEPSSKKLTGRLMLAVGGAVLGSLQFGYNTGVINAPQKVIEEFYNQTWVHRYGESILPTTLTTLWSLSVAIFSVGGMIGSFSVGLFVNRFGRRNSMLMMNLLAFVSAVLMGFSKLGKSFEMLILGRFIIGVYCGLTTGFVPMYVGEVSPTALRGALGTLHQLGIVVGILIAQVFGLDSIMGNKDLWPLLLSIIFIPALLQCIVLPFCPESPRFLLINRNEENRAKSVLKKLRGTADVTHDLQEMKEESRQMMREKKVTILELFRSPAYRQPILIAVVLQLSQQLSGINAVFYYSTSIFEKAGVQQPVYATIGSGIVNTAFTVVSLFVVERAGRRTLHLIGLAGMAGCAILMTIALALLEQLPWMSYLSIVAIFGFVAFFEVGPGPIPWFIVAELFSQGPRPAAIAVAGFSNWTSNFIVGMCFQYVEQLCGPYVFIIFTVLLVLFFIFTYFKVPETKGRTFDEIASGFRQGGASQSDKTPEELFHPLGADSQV
Method: To evaluate if the described anti-SLC2A1 antibodies inhibit glucose uptake, a commercial Glucose Uptake-Glo Assay kit (Promega) was utilized according to manufacturer's instructions. In short, HEK-293-ALL cells were transfected with human SLC2A1 expression plasmid and were incubated at 37° C. overnight in the presence of 5% CO2. Cells were washed with 0.5% BSA PBS twice and 7000 cells were plated per well into white clear bottom 96-well plates in 0.5% BSA PBS in the presence of 0.35 nM to 6.89 μM anti-SLC2A1 antibodies or glucose uptake inhibitor BAY-876 (CaymanChem). Cells were incubated for 2 hours at room temperature. Glucose uptake was initiated by the addition of 1 mM 2-deoxyglucose (2DG) and was allowed to proceed for 20 min at 37° C. in the presence of 5% CO2. After adding STOP and neutralization reagents included in the kit, luminescence was measured using GloMax Explorer microplate reader (Promega). Nonspecific luminescence was measured in lysates from cells without (2DG) being added. Data was normalized to nonspecific luminescence and to the average value of luminescence in the presence of no inhibitors.

[4] = target: T4, SLC2A4 pseudotyped VLPs (Homo sapiens, UniProt P14672); assay: ELISA-based VLP binding assay, SLC2A4; conditions: compared to MOCK VLPs, FIG. 3
T4 sequence (P14672 1-509): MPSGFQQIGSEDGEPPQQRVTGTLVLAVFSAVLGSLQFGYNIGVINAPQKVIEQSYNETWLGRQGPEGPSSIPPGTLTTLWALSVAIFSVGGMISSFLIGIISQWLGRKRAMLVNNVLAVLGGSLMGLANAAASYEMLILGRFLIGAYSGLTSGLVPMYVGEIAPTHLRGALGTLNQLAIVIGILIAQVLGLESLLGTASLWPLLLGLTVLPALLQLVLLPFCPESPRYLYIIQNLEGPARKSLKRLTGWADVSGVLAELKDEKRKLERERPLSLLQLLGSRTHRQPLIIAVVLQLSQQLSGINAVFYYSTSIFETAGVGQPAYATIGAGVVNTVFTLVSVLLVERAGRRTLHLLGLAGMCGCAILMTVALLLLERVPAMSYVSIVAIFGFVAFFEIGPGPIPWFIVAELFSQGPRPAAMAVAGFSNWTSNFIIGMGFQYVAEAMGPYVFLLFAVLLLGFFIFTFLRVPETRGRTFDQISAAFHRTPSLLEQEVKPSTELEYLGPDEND
Method: as §1

Molecule	binding to SLC2A2 VLPs [1]	binding result [2]	glucose (2-deoxyglucose) uptake [3]	binding to SLC2A4 VLPs [4]
B1	did not bind	no binding	strong concentration dependent decrease	did not bind
B2	did not bind; also recorded: Some binding	no binding	strong concentration dependent decrease	did not bind; also recorded: Some binding
